{"source": "the supplement of paper PMC10065799", "about": "“High-throughput profiling of sequence recognition by tyrosine kinases and SH2 domains using bacterial peptide display” (eLife, 2023);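 further: 11-residue human phosphosite peptides and single-mutation variants displayed on the E. coli surface, counted by deep sequencing, each peptide's frequency after selection divided by its frequency in the unselected input library; frequency after pTyr selection over input frequency; kinase dosed for 20-30% of maximal phosphorylation in three min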", "data": [{"biological_target": "MERTK (UniProt Q12866)", "sequence (Q12866 whole entry, looked up)": "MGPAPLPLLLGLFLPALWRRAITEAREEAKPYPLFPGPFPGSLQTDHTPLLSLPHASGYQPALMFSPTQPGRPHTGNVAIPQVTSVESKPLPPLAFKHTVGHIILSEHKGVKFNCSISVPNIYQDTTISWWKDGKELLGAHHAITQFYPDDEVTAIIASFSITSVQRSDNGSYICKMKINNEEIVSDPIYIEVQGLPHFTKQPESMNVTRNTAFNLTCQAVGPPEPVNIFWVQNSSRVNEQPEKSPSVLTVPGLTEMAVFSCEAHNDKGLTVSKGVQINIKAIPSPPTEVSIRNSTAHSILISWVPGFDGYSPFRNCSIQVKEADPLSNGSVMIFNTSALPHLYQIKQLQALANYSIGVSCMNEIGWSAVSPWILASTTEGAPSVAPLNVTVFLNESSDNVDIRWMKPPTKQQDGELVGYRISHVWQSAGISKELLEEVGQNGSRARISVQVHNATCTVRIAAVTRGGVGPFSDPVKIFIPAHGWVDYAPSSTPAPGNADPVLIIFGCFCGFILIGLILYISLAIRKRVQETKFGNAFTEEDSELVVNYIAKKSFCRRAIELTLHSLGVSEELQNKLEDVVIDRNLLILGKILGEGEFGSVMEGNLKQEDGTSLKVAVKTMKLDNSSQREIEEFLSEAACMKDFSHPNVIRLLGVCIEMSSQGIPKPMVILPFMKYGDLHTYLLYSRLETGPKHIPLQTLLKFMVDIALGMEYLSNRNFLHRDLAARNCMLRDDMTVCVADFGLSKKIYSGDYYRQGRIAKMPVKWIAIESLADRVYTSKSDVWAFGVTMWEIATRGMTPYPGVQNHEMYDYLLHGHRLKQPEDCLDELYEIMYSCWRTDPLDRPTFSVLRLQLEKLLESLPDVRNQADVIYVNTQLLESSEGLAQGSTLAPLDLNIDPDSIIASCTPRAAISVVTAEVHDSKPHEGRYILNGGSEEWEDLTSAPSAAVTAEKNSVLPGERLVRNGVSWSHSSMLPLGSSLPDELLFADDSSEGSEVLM", "assay": "phosphorylation enrichment, bacterial display (enrichment ratio); higher = better substrate or ligand; peptides without Tyr show the background", "values": [{"sequence": "HDRGNYVQLNM [RECQL4_Y353_R355Q]", "phosphorylation enrichment": 0.686}, {"sequence": "QGIIIYRAAYF [SLC25A4_Y187]", "phosphorylation enrichment": 0.541}, {"sequence": "LKDEDYLKDTV [HAUS3_Y582_I586T]", "phosphorylation enrichment": 1.04}, {"sequence": "EGLKVYVNGTL [ADGRD1_Y183]", "phosphorylation enrichment": 0.469}, {"sequence": "PLRADYLIARV [HLCS_Y635]", "phosphorylation enrichment": 0.717}, {"sequence": "DRLASYLDKAR [KRT14_Y129_V133A]", "phosphorylation enrichment": 0.378}, {"sequence": "GRLPEYNTPIA [CCDC151_Y542_R545P]", "phosphorylation enrichment": 0.407}, {"sequence": "SSQILYKLEQS [THADA_Y701_V699I]", "phosphorylation enrichment": 0.466}, {"sequence": "EEKSCYILHSS [PATJ_Y783_E780K]", "phosphorylation enrichment": 0.449}, {"sequence": "LEDEVCAQKMK [TPM2_Y261_Y261C]", "phosphorylation enrichment": 0.848}, {"sequence": "TFLRTYTDTMQ [TSPAN7_Y124_A127T]", "phosphorylation enrichment": 0.391}, {"sequence": "SKKSTYRALLD [GANC_Y43_Q44R]", "phosphorylation enrichment": 0.421}, {"sequence": "QLHREYCLSPR [HJURP_Y445]", "phosphorylation enrichment": 0.887}, {"sequence": "TLNVRYESVQA [CEACAM7_Y236]", "phosphorylation enrichment": 0.371}, {"sequence": "SNKLHYQLEQE [PDPR_Y110_Y109H]", "phosphorylation enrichment": 0.442}, {"sequence": "GREAEYSEKHG [EPHB4_Y574_D576E]", "phosphorylation enrichment": 0.368}, {"sequence": "AEPTGYSAELS [EZR_Y499]", "phosphorylation enrichment": 0.485}, {"sequence": "VHSGTYQVTVR [MYBPC3_Y1043]", "phosphorylation enrichment": 0.409}, {"sequence": "PYAEPYADYGG [APBA1_Y187_S184A]", "phosphorylation enrichment": 0.853}, {"sequence": "ARTNEYKIIRS [INA_Y87_T92S]", "phosphorylation enrichment": 0.407}, {"sequence": "FFHCTYKQRMI [CLEC12A_Y242_K244Q_YF]", "phosphorylation enrichment": 0.517}, {"sequence": "HVIKFYGACSQ [RET_Y791_L790F]", "phosphorylation enrichment": 0.545}, {"sequence": "ANNPLYKEATS [ITGB3_Y773]", "phosphorylation enrichment": 0.316}, {"sequence": "KLKNAYEESLE [MYH7_Y1488]", "phosphorylation enrichment": 0.452}, {"sequence": "EFENSYIFDIN [GAB1_Y83]", "phosphorylation enrichment": 0.419}, {"sequence": "LQIPMYEVQWK [KIT_Y553_K550I]", "phosphorylation enrichment": 7.37}, {"sequence": "PELINYHQHYS [BTK_Y361_N365Y]", "phosphorylation enrichment": 0.319}, {"sequence": "WQQQSYLASGI [CTNNB1_Y30_D32A]", "phosphorylation enrichment": 0.411}, {"sequence": "CKLCQYYLDHL [ATRX_Y1849_Y1847C]", "phosphorylation enrichment": 0.419}, {"sequence": "HKLSYCEYDFE [BTK_Y40_Y40C]", "phosphorylation enrichment": 0.535}, {"sequence": "NELTYYCYKKD [CD59_Y87_C89Y]", "phosphorylation enrichment": 1.77}, {"sequence": "PVGDVYKKKGL [NMNAT1_Y55_A54V]", "phosphorylation enrichment": 0.491}, {"sequence": "DAANNYARGHF [TUBA3E_Y103_S101N_YF]", "phosphorylation enrichment": 0.544}]}, {"test_system": "c-Src", "assay": "phosphorylation enrichment, bacterial display (enrichment ratio); higher = better substrate or ligand; peptides without Tyr show the background", "values": [{"sequence": "HDRGNYVQLNM [RECQL4_Y353_R355Q]", "phosphorylation enrichment": 0.442}, {"sequence": "QGIIIYRAAYF [SLC25A4_Y187]", "phosphorylation enrichment": 0.544}, {"sequence": "LKDEDYLKDTV [HAUS3_Y582_I586T]", "phosphorylation enrichment": 0.838}, {"sequence": "EGLKVYVNGTL [ADGRD1_Y183]", "phosphorylation enrichment": 0.418}, {"sequence": "PLRADYLIARV [HLCS_Y635]", "phosphorylation enrichment": 0.582}, {"sequence": "DRLASYLDKAR [KRT14_Y129_V133A]", "phosphorylation enrichment": 0.349}, {"sequence": "GRLPEYNTPIA [CCDC151_Y542_R545P]", "phosphorylation enrichment": 0.463}, {"sequence": "SSQILYKLEQS [THADA_Y701_V699I]", "phosphorylation enrichment": 0.669}, {"sequence": "EEKSCYILHSS [PATJ_Y783_E780K]", "phosphorylation enrichment": 0.514}, {"sequence": "LEDEVCAQKMK [TPM2_Y261_Y261C]", "phosphorylation enrichment": 0.573}, {"sequence": "TFLRTYTDTMQ [TSPAN7_Y124_A127T]", "phosphorylation enrichment": 0.425}, {"sequence": "SKKSTYRALLD [GANC_Y43_Q44R]", "phosphorylation enrichment": 0.385}, {"sequence": "QLHREYCLSPR [HJURP_Y445]", "phosphorylation enrichment": 1.34}, {"sequence": "TLNVRYESVQA [CEACAM7_Y236]", "phosphorylation enrichment": 0.415}, {"sequence": "SNKLHYQLEQE [PDPR_Y110_Y109H]", "phosphorylation enrichment": 0.443}, {"sequence": "GREAEYSEKHG [EPHB4_Y574_D576E]", "phosphorylation enrichment": 0.396}, {"sequence": "AEPTGYSAELS [EZR_Y499]", "phosphorylation enrichment": 0.488}, {"sequence": "VHSGTYQVTVR [MYBPC3_Y1043]", "phosphorylation enrichment": 0.561}, {"sequence": "PYAEPYADYGG [APBA1_Y187_S184A]", "phosphorylation enrichment": 5.47}, {"sequence": "ARTNEYKIIRS [INA_Y87_T92S]", "phosphorylation enrichment": 0.407}, {"sequence": "FFHCTYKQRMI [CLEC12A_Y242_K244Q_YF]", "phosphorylation enrichment": 0.435}, {"sequence": "HVIKFYGACSQ [RET_Y791_L790F]", "phosphorylation enrichment": 0.564}, {"sequence": "ANNPLYKEATS [ITGB3_Y773]", "phosphorylation enrichment": 0.3}, {"sequence": "KLKNAYEESLE [MYH7_Y1488]", "phosphorylation enrichment": 0.472}, {"sequence": "EFENSYIFDIN [GAB1_Y83]", "phosphorylation enrichment": 0.432}, {"sequence": "LQIPMYEVQWK [KIT_Y553_K550I]", "phosphorylation enrichment": 1.55}, {"sequence": "PELINYHQHYS [BTK_Y361_N365Y]", "phosphorylation enrichment": 0.5}, {"sequence": "WQQQSYLASGI [CTNNB1_Y30_D32A]", "phosphorylation enrichment": 0.5}, {"sequence": "CKLCQYYLDHL [ATRX_Y1849_Y1847C]", "phosphorylation enrichment": 1.57}, {"sequence": "HKLSYCEYDFE [BTK_Y40_Y40C]", "phosphorylation enrichment": 2.46}, {"sequence": "NELTYYCYKKD [CD59_Y87_C89Y]", "phosphorylation enrichment": 4.48}, {"sequence": "PVGDVYKKKGL [NMNAT1_Y55_A54V]", "phosphorylation enrichment": 0.488}, {"sequence": "DAANNYARGHF [TUBA3E_Y103_S101N_YF]", "phosphorylation enrichment": 0.468}]}]}
